This note sets out measurements from publication doi:10.1101/2023.03.07.531120 (bioRxiv, 2023).

This experiment deals with T1, AP2 μ2 subunit (in the mouse AP2 core) (mouse, UniProt P84091 1-435).
T1 sequence: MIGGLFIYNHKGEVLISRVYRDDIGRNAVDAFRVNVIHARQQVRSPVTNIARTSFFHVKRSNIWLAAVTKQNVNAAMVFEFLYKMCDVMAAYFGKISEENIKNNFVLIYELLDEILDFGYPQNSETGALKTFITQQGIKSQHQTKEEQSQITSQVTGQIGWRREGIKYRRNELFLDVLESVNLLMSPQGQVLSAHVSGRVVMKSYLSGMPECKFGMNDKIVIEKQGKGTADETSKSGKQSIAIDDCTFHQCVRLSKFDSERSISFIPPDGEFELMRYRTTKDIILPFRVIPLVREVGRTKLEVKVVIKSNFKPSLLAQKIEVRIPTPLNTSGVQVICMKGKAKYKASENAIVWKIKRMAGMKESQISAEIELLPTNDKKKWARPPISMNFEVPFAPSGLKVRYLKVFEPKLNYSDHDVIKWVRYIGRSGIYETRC
The experiment is described as follows: cryo-EM structure.

Where no end group is shown, it is not given here. The star is where a group is joined. FITC = O=C1OC2(c3ccc(O)cc3Oc3cc(O)ccc32)c2ccc(NC(=S)*)cc21; Oleoyl = CCCCCCCC/C=C\CCCCCCCC(=O)*

With Oleoyl-SK(FITC)KVTRRPKASDYQRL [Lipidated YxxΦ-cargo peptide of Tgn38 (Oleic acid-S{Lys(FITC)}KVTRRPKASDYQRL)], the binding result is reported as “binds”.
